Laboratory results reported in paper PMC4518479, “Rad51 Paralogs Remodel Pre-synaptic Rad51 Filaments to Stimulate Homologous Recombination” (Cell, 2015).
Changes are numbered by the printed parent chain.

Tests used:
[1] = target: T1, FLAG-tagged RIP-1 co-expressed with RFS-1 in budding yeast (C. elegans, UniProt Q21621 1-209); assay: SEC; 3 ml Superdex 75 5/150 GL column loaded with 30 ul RFS-1/RIP-1 from single-step FLAG immunoprecipitation; size from molecular weight markers; details: both partners purified
T1 construct: RIP-1 of C. elegans (R01H10.5); also called RIP-1-FLAG; source: budding yeast, co-expressed with RFS-1, in extract; purified by FLAG immunoprecipitation; not shown: FLAG, C-terminal, kept
T1 sequence (looked up): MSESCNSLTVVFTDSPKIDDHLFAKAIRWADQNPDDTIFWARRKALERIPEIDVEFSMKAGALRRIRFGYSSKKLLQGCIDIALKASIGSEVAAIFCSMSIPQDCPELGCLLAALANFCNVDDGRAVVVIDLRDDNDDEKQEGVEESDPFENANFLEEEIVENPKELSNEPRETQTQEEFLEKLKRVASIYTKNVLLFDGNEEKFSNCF

RFS-1/RIP-1 [2] = target: T2, RFS-1/RIP-1 (Caenorhabditis elegans, UniProt P34348;Q21621 1-245;1-209); assay: EMSA; weak binding; nucleotide independent; EMSA: 20 mM triethanolamine-HCl pH 7.5, 8% glycerol, 1 mM DTT, 50 mM sodium acetate, 2 mM MgCl2 + 2 mM nucleotide (or 10 mM EDTA), 100 nM (nt) DNA, 25 °C; details: protein: recombinant; copies: 1;1; label: 5'-32P or 5'-fluorescein
T2 sequence 1: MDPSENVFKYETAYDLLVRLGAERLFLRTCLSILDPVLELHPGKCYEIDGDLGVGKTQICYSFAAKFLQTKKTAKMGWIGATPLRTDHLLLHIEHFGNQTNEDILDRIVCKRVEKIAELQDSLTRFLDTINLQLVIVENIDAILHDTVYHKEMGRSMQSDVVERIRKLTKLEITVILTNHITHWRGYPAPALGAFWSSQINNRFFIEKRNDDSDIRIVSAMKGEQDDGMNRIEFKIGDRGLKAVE
T2 sequence 2: T1 sequence (looked up)

[3] = target: T3, RAD-51;RFS-1(E138A)/RIP-1 (Caenorhabditis elegans;Caenorhabditis …, UniProt Q7K7I8;P34348;Q21621 1-357;1-245;1-209, |E138A); assay: EMSA; ATP; filament binding similar to wild type; EMSA: 20 mM triethanolamine-HCl pH 7.5, 8% glycerol, 1 mM DTT, 50 mM sodium acetate, 2 mM MgCl2 + 2 mM nucleotide (or 10 mM EDTA), 100 nM (nt) DNA, 25 °C; details: protein: recombinant;recombinant; tags: none (His-SUMO tag cleaved);3xFLAG at RIP-1 C-terminus; label: 5'-32P or 5'-fluorescein
T3 sequence 1: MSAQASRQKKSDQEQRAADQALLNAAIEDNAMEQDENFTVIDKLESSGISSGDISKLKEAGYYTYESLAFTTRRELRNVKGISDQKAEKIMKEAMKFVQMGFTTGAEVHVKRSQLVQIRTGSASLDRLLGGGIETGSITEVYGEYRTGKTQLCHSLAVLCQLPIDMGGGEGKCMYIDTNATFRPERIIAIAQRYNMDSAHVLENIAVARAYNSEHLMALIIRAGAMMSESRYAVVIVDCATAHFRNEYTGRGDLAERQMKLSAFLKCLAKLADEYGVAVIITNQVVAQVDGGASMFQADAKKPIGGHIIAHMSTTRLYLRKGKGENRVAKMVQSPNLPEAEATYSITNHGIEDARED
T3 sequence 2: T2 sequence 1 with E138A
T3 sequence 3: T1 sequence (looked up)

RAD-51;RFS-1(K56A)/RIP-1 = target: T4, RAD-51;RFS-1(K56A)/RIP-1 (Caenorhabditis elegans;Caenorhabditis …, UniProt Q7K7I8;P34348;Q21621 1-357;1-245;1-209, |K56A); assay: as above; details: protein: recombinant;recombinant; tags: none (His-SUMO tag cleaved);3xFLAG at RIP-1 C-terminus; label: 5'-32P or 5'-fluorescein
T4 sequence 1: T3 sequence 1
T4 sequence 2: T2 sequence 1 with K56A
T4 sequence 3: T1 sequence (looked up)

RFS-1(K56A)/RIP-1 = target: T5, RFS-1(K56A)/RIP-1 (Caenorhabditis elegans, UniProt P34348;Q21621 1-245;1-209, K56A); assay: EMSA; increased ssDNA affinity relative to wild type; EMSA: 20 mM triethanolamine-HCl pH 7.5, 8% glycerol, 1 mM DTT, 50 mM sodium acetate, 2 mM MgCl2 + 2 mM nucleotide (or 10 mM EDTA), 100 nM (nt) DNA, 25 °C; details: protein: recombinant; tags: 3xFLAG at RIP-1 C-terminus; copies: 1;1; label: 5'-32P or 5'-fluorescein
T5 sequence 1: T2 sequence 1 with K56A
T5 sequence 2: T1 sequence (looked up)

RFS-1(E138A)/RIP-1 = target: T6, RFS-1(E138A)/RIP-1 (Caenorhabditis elegans, UniProt P34348;Q21621 1-245;1-209, E138A); assay: as above; details: protein: recombinant; tags: 3xFLAG at RIP-1 C-terminus; copies: 1;1; label: 5'-32P or 5'-fluorescein
T6 sequence 1: T2 sequence 1 with E138A
T6 sequence 2: T1 sequence (looked up)

RAD-51;RFS-1/RIP-1 = target: T7, RAD-51;RFS-1/RIP-1 (Caenorhabditis elegans;Caenorhabditis …, UniProt Q7K7I8;P34348;Q21621 1-357;1-245;1-209, |); assay: EMSA with anti-FLAG immuno-shift; ATP; RFS-1/RIP-1 bound to RAD-51 filament; EMSA: 20 mM triethanolamine-HCl pH 7.5, 8% glycerol, 1 mM DTT, 50 mM sodium acetate, 2 mM MgCl2 + 2 mM nucleotide (or 10 mM EDTA), 100 nM (nt) DNA, 25 °C; details: protein: recombinant;recombinant; label: 5'-32P or 5'-fluorescein
T7 sequence 1: T3 sequence 1
T7 sequence 2: T2 sequence 1
T7 sequence 3: T1 sequence (looked up)

RFS-1/RIP-1 [4] = target: T2, RFS-1/RIP-1; assay: EMSA; EMSA: 20 mM triethanolamine-HCl pH 7.5, 8% glycerol, 1 mM DTT, 50 mM sodium acetate, 2 mM MgCl2 + 2 mM nucleotide (or 10 mM EDTA), 100 nM (nt) DNA, 25 °C; details: protein: recombinant; copies: 1;1; label: 5'-32P; blunt

B1: RFS-1 co-expressed with RIP-1 in budding yeast (natural protein, C. elegans, UniProt P34348 1-245, looked up)
chain: T2 sequence 1
notes: RFS-1 of C. elegans; see Supplemental Experimental Procedures; also called recombinant RFS-1; source: budding yeast, co-expressed with RIP-1, in extract; co-purified by FLAG immunoprecipitation
In the case of B1, the “stoichiometry N” value [1] is reported as 1.

B2: 60-mer ssDNA (ssDNA)
DNA: ACGCTGCCGAATTCTACCAGTGCCTTGCTAGGACATCTTTGCCCACCTGCAGGTTCACCC
B2: binds (RFS-1/RIP-1 [2]); binds [3]; binds (RAD-51;RFS-1(K56A)/RIP-1). B2: binds (RFS-1(K56A)/RIP-1); binds (RFS-1(E138A)/RIP-1); binds (RAD-51;RFS-1/RIP-1).

B3: 60-mer dsDNA (dsDNA)
DNA 1: B2 DNA
DNA 2: GGGTGAACCTGCAGGTGGGCAAAGATGTCCTAGCAAGGCACTGGTAGAATTCGGCAGCGT
B3: no binding (RFS-1/RIP-1 [4]).
